B1: MX35 (v18992), reference anti-NaPi2b antibody (antibody, human IgG1, kappa)
heavy 1: GQVQLVQSGAEVVKPGASVKMSCKASGYTFTGYNIHWVKQAPGQGLEWIGAIYPGNGDTSYKQKFRGRATLTADTSTSTVYMELSSLRSEDSAVYYCARGETARATFAYWGQGTLVTVSSASTKGPSVFPLAPSSKSTSGGTAALGCLVKDYFPEPVTVSWNSGALTSGVHTFPAVLQSSGLYSLSSVVTVPSSSLGTQTYICNVNHKPSNTKVDKKVEPKSCDKTHTCPPCPAPELLGGPSVFLFPPKPKDTLMISRTPEVTCVVVDVSHEDPEVKFNWYVDGVEVHNAKTKPREEQYNSTYRVVSVLTVLHQDWLNGKEYKCKVSNKALPAPIEKTISKAKGQPREPQVYVYPPSRDELTKNQVSLTCLVKGFYPSDIAVEWESNGQPENNYKTTPPVLDSDGSFALVSKLTVDKSRWQQGNVFSCSVMHEALHNHYTQKSLSLSPG
heavy 2: not shown
light: GDIQMTQSPSSLSASVGDRVTITCSASQDIGNFLNWYQQKPGKTVKVLIYYTSSLYSGVPSRFSGSGSGTDYTLTISSLQPEDFATYYCQQYSKLPLTFGQGTKLELKRTVAAPSVFIFPPSDEQLKSGTASVVCLLNNFYPREAKVQWKVDNALQSGNSQESVTEQDSKDSTYSLSSTLTLSKADYEKHKVYACEVTHQGLSSPVTKSFNRGEC
B2: lifastuzumab (v18993), reference anti-NaPi2b antibody (antibody, human IgG1, kappa)
heavy 1: GEVQLVESGGGLVQPGGSLRLSCAASGFSFSDFAMSWVRQAPGKGLEWVATIGRVAFHTYYPDSMKGRFTISRDNSKNTLYLQMNSLRAEDTAVYYCARHRGFDVGHFDFWGQGTLVTVSSASTKGPSVFPLAPSSKSTSGGTAALGCLVKDYFPEPVTVSWNSGALTSGVHTFPAVLQSSGLYSLSSVVTVPSSSLGTQTYICNVNHKPSNTKVDKKVEPKSCDKTHTCPPCPAPELLGGPSVFLFPPKPKDTLMISRTPEVTCVVVDVSHEDPEVKFNWYVDGVEVHNAKTKPREEQYNSTYRVVSVLTVLHQDWLNGKEYKCKVSNKALPAPIEKTISKAKGQPREPQVYVYPPSRDELTKNQVSLTCLVKGFYPSDIAVEWESNGQPENNYKTTPPVLDSDGSFALVSKLTVDKSRWQQGNVFSCSVMHEALHNHYTQKSLSLSPG
heavy 2: not shown
light: GDIQMTQSPSSLSASVGDRVTITCRSSETLVHSSGNTYLEWYQQKPGKAPKLLIYRVSNRFSGVPSRFSGSGSGTDFTLTISSLQPEDFATYYCFQGSFNPLTFGQGTKVEIKRTVAAPSVFIFPPSDEQLKSGTASVVCLLNNFYPREAKVQWKVDNALQSGNSQESVTEQDSKDSTYSLSSTLTLSKADYEKHKVYACEVTHQGLSSPVTKSFNRGEC
B3: palivizumab (v21995), anti-RSV antibody, negative control (antibody, human IgG1, kappa, V domains shown)
VH: QVTLRESGPALVKPTQTLTLTCTFSGFSLSTSGMSVGWIRQPPGKALEWLADIWWDDKKDYNPSLKSRLTISKDTSKNQVVLKVTNMDPADTATYYCARSMITNWYFDVWGAGTTVTVSS
VL: DIQMTQSPSTLSASVGDRVTITCKSQLSVGYMHWYQQKPGKAPKLLIYDTSKLASGVPSRFSGSGSGTEFTLTISSLQPDDFATYYCFQGSGYPFTFGGGTKLEIKR

Experiments:
[1] = biological target: T1, Construct 3 (chimeric human NaPi2b, swap in NaPi2c in 304-321) (human); experiment: flow cytometry, transfected HEK293-6e cells, antibody 20 nM
T1 construct: also called CL_#29916

[2] = biological target: T2, Construct 7 (human NaPi2b del 317-326) (human, UniProt O95436 1-690); experiment: as above
T2 construct: also called CL_#29921
T2 sequence: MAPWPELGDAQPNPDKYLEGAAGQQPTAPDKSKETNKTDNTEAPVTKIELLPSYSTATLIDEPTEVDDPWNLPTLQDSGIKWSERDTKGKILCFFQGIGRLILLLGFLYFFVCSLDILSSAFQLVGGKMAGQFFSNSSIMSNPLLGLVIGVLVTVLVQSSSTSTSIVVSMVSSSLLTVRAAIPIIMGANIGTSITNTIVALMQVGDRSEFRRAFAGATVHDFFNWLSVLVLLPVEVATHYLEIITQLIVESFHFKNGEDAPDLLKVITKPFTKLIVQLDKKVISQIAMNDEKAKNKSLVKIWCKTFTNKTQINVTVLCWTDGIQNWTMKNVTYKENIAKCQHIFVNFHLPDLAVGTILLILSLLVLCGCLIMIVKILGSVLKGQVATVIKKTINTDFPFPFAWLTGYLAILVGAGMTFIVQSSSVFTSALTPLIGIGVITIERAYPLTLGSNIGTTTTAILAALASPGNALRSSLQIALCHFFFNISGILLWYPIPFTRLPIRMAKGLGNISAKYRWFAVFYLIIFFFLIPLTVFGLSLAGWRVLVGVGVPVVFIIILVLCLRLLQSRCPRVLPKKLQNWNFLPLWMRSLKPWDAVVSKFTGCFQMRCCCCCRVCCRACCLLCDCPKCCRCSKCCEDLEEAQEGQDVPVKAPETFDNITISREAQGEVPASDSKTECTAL

[3] = biological target: T3, Construct 4 (chimeric human NaPi2b, swap in NaPi2c in 341-358) (human); experiment: as above
T3 construct: also called CL_#13435

[4] = biological target: T1, Construct 3 (chimeric human NaPi2b, …); experiment: flow cytometry, transfected HEK293-6e cells, antibody 2 nM;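 note: transfected cells exposed to test antibody 24 h at 4 °C to block internalization, at least 1,000 events per well, background is mean MFI of unstained cells lacking primary antibody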
[5] = biological target: T4, Construct 1 (chimeric human NaPi2b, swap in NaPi2c in 239-259) (human); experiment: as above
T4 construct: also called CL_#29914

[6] = biological target: T5, Construct 5 (chimeric human NaPi2b, swap in NaPi2a in 304-348) (human); experiment: as above
T5 construct: also called CL_#13436

[7] = biological target: T6, Construct 2 (chimeric human NaPi2b, swap in NaPi2c in 280-301) (human); experiment: as above
T6 construct: also called CL_#29915

Binder | Background-Subtracted AF647 Mean Fluorescence Intensity [1] | Background-Subtracted AF647 Mean Fluorescence Intensity [2] | Background-Subtracted AF647 Mean Fluorescence Intensity [3] | Background-Subtracted AF647 Mean Fluorescence Intensity [4] | Background-Subtracted AF647 Mean Fluorescence Intensity [5] | Background-Subtracted AF647 Mean Fluorescence Intensity [6] | Background-Subtracted AF647 Mean Fluorescence Intensity [7]
B1 | 930 MFI | 233 MFI | 979 MFI | 594 MFI | 1890 MFI | 16 MFI | 660 MFI
B2 | 920 MFI | 35 MFI | 1050 MFI | 609 MFI | 1230 MFI | 25 MFI | 473 MFI
B3 | 39 MFI | -85 MFI | 22 MFI | 19 MFI | -30 MFI | -2 MFI | -69 MFI

From patent publication US20260232827A1 (Zymeworks, published 2026)
